Changes are numbered by the printed parent chain.
T1: human TIGIT on Jurkat cells (TIGIT/NFAT reporter Jurkat cells, BPS Bioscience #60538); Promega TIGIT Effector … (human, UniProt Q495A1 22-244)
T1 construct: whole, on cells; Same protein on two bought Jurkat lines (flow cytometry: BPS; bioassay: Promega); also called hu TIGIT cells; cells expressing human TIGIT
T1 sequence (looked up): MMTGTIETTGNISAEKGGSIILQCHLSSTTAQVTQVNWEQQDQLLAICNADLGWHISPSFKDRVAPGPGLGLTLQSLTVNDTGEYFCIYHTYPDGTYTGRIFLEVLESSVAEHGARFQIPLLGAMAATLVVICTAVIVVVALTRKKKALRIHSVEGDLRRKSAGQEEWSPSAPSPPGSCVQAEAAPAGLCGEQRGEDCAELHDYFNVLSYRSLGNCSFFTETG

T2: his-tagged human TIGIT (Acro Biosystems #TIT-H52H3) (human, UniProt Q495A1 22-141)
T2 construct: Bought protein; also called His-tagged-TIGIT (human); not shown: his tag
T2 sequence (looked up): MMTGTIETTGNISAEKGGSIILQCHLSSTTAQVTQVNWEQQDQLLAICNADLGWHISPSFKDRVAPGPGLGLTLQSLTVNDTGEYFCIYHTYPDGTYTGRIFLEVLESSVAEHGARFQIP

T3: his-tagged murine TIGIT (Acro Biosystems #TIT-M52E6) (murine, UniProt P86176 29-148, limits assumed)
T3 construct: Bought protein; also called mouse his-tagged TIGIT; not shown: his tag
T3 sequence (looked up): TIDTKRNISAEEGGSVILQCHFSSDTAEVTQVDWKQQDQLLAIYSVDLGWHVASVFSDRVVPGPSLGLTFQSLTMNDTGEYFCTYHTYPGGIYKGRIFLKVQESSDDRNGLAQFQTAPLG

B1: 43586p2.G01 (scFv, V domains shown)
VH: EVQLLESGGGLVQPGGSLRLSCAASGFTVSSNWMSWVRQAPGKGLEWVSTTSSSSWNNYTYYADSVKGRFTISRDNSKNTLYLQMNSLRAEDTAVYYCAKGSYGMDVWGQGTTVTVSS
VL: QSVLTQPPSASGTPGQRVTISCSGSNSNIGAKYLYWYQQLPGTAPKLLIYLNDRRPSGVPDRFSGSKSGTSASLAISGLQSEDEADYYCAFWDDHLKGWVFGGGTKLTVL
B2: 43586p2.H02 (scFv, V domains shown)
VH: EVQLLESGGGLVQPGGSLRLSCATSGFTVSDHYVSWVRQAPGKGLEWVSTSSSTNWNDGRTYYADSVKGRFTISRDNSENTLYLQMNSLRAEDTAVYYCAKGSYGMDVWGQGTTVTVSS
VL: B1 VL with G24A, N28Y, A31T, L34F, N52D, D53S, R54Q, A72V, K97H
B3: 43645p1.B2 (scFv, V domains shown)
VH: EVQLLESGGGLVQPGGSLRLSCATSGFTFSSYWMSWVRQAPGKGLEWVSGIHISDSTYYADSVKGRFTISRDNSKNTLYLQMNSLRAEDTAVYYCAKGHTVLQYGMDVWGQGTTVTVSS
VL: QSGLTQPPSASGTPGQRVTISCSGDISNTRNNYVSWYQQLPGTAPKLLIYGNHQRPSGVPDRFSGSKSATSASLAISGLQSEDEADYHCGTWDNTLNAWVFGGGTKLTVL
B4: 43645p1.G5 (scFv, V domains shown)
VH: EVQLLESGGGLVQPGGSLRLSCAASGFTFSSYYMSWVRQAPGKGLEWVSAISIFSGDSTYYADSVKGRFTISRDNSKNTLYLQMNSLRAEDTAVYYCAKSHTVLQYGMDVWGQGTTVTVSS
VL: B3 VL with G3V, D25V, I26T, T29I, N32Y, H53D, A69G, H88Y
B5: 43645p1.E3 (scFv, V domains shown)
VH: EVQLLESGGGLVQPGGSLRLSCAASGFTFSSYAMSWVRQAPGKGLEWVSAIYFDGSIYDADSVKGRFTISRDNSKNTLYLQMNSLRDEDTAVYYCAKSHTVLQYGMDVWGQGTTVTVSS
VL: B3 VL with G3V, D25V, I26T, T29I, N32S, H53D, A69G, H88Y
B6: 43645p1.D3 (scFv, V domains shown)
VH: B3 VH with T24A
VL: B3 VL with H88Y
B7: 43586p2.F02 (scFv, V domains shown)
VH: EVQLLESGGGLVQPGGSLRLSCAASGFTFDDYVMSWVRQAPGKGLEWVSLINWNGDKTYYADSVKGRFTISRDNSKNTLYLQMNSLRAEDTAVYYCARHWIVLQYGLDVWGQGTTVTVSS
VL: QSVLTQPLSASGTPGQRVTISCSGVSSNIEIKYVSWYQQLPGTAPKLLIYNSHQRPSGVPDRFSGSKSGTSASLAISGLQSEDEADYYCTSWDDRLKSWVFGGGTKLTVL
B8: 43586p2.F11 (scFv, V domains shown)
VH: B7 VH with S7L, G10S, L103F
VL: B7 VL with R17K
B9: 43645p1.H10 (scFv, V domains shown)
VH: EVQLLESGGGLVQAGGSLRLSCAASGFTFDDYVMTWVRQAPGKGLEWVSLINWSGDRTYYADSVKGRFTISRDNSKNTLYLQMNSLRAEDTAVYYCVKHNLNYYYGMDVWGQGTTVTVSS
VL: QSVLTQPPSVSGTPGQRVTISCSGTISNVGNKYVSWYQQVPGTAPKLLIDYNQRPSGVPDRFSGSQSGTSASLTISGLQSEDEADYYCATWDDSLKGWVFGGGTKLTVL
B10: 43586p2.A03 (scFv, V domains shown)
VH: EVQLLESGGGLVQPGGSLRLSCAASGFTFTSYAMSWVRQAPGKGLEWVAGISYIGRNEYYADSVKGRLTISRDNSKNTLYLQMNNLRAEDTAIYYCAKHLTGGTTDYYYYGMDVWGQGTTVTVSS
VL: QSVLTQPPSASGTPGQRVTISCSGSTSNIGTSRYVHWYQQLPGTAPKLLIYFDSQRPSGVPDRFSASKSGTSASLAISGLQSEDEADYYCATWDDSLSAWVFGGGTKLTVL
B11: 43586p1.1.H8 (scFv, V domains shown)
VH: EVQLLESGGGLVQPGGSLRLSCAASGFTFIDFWMSWVRQAPGKGLEWVSAISWIGDTYYYADSVKGRFTVSRDNSKNTVYLQMNSLRAEDTAVYYCAKHWTVYQYGMDVWGQGTTVTVSS
VL: QSVLTQPPSASGTPGQRVIISCSGSTSDIETKYVSWYQQLPGTAPKLLIYGNHQRPSGVPDRFSGSKSGTSASLAISGLQSEDEADYYCTAWDNTLKSWVFGGGTKLTVL
B12: 43645p1.D8 (scFv, V domains shown)
VH: EVQLLESGGDLVQSGGSLRLSCAASGFSFWGYAMTWVRQAPGKGLEWVSTIAGNSYAYYADSVKGRFTISRDNSKNMVYLQMNGLRAEDTAVYYCAKDRSFYNYYDIDVWGQGTTVTVSS
VL: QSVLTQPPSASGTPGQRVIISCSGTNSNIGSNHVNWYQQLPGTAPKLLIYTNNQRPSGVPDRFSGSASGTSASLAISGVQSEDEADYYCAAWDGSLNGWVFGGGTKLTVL
B13: 43586p1.2.F6 (scFv, V domains shown)
VH: EVQLLESGEGLVQPGGSLRLSCAASGFTFTSYLMSWVRQAPGKGLEWVSTITWDGDRTYYADSVKGRFTISRDNSKNTLYLQMNSLRVGDTAVYYCAKHWTVFQYGMDVWGQGTTVTVSS
VL: B11 VL with P8A, I19T, S25T, T26I, D28N, T90A, A91S, D93E, T95D
notes: Tested as scFv-Fc supernatant; also called 43586p1.2.F06

biological target: T1, human TIGIT on Jurkat cells (TIGIT/NFAT …); experiment: flow cytometry, TIGIT/NFAT Jurkat cells, 10 ug/ml

MFI [MFI]	Binder
9720	B1
9130	B2
8950	B3
12400	B4
9950	B5
9350	B6
8960	B7
9200	B8
10000	B9
9070	B10
9170	B11
10300	B12

biological target: T2, his-tagged human TIGIT (Acro Biosystems …); experiment: ELISA, coated His-TIGIT, 1 ug/ml

Elisa OD450 [OD450]	Binder
2.03	B1
2	B2
2.42	B3
1.94	B4
1.99	B5
2.13	B6
1.85	B7
1.98	B8
2	B9
1.96	B10
1.93	B11
1.77	B12

biological target: T3, his-tagged murine TIGIT (Acro …); experiment: ELISA, coated His-TIGIT, 1 ug/ml

Elisa OD450 [OD450]	Binder
1.95	B1
1.93	B2
1.85	B3
1.01	B4
0.947	B5
1.9	B6
1.9	B7
1.93	B8
1.7	B9
0.046	B10
0.048	B11
0.053	B12

biological target: T4, His-tagged cynomolgus monkey TIGIT (Acro Biosystems #TIT-05223) (cynomolgus monkey, UniProt A0A7N9I9V4 89-209); experiment: ELISA, coated His-TIGIT, 1 ug/ml
T4 construct: Bought protein; also called cyno TIGIT; cynomolgus TIGIT; not shown: His tag
T4 sequence (A0A7N9I9V4 entry or part of it): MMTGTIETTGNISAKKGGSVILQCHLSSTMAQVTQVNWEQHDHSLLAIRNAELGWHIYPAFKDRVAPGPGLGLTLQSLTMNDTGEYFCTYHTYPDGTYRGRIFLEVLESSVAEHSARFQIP

Elisa OD450 [OD450]	Binder
1.15	B1
1.09	B2
1.61	B3
1.73	B4
1.53	B5
1.74	B6
1.77	B7
1.92	B8
1.85	B9
1.41	B10
1.25	B11
1.36	B12

biological target: T1, human TIGIT on Jurkat cells (TIGIT/NFAT …); experiment: cell-based or functional assay

max. signal (% of 22G2)	Binder
110 % of 22G2	B1
80 % of 22G2	B2
111 % of 22G2	B3
99 % of 22G2	B4
103 % of 22G2	B5
115 % of 22G2	B6
92 % of 22G2	B7
104 % of 22G2	B8
109 % of 22G2	B9
109 % of 22G2	B10
124 % of 22G2	B11
108 % of 22G2	B12

biological target: T2, his-tagged human TIGIT (Acro Biosystems …); experiment: SPR (Carterra LSA), scFv-Fc captured, His-TIGIT analyte
Description: (§1) Binding affinities of anti-TIGIT antibodies to human, cyno, and murine TIGIT were measured by Surface Plasmon Resonance (SPR) on a Carterra LSA instrument. Goat anti-human Fc antibody was amine coupled to a HC30M chip. ScFv-Fc supernatants were diluted 30-fold with HBSTE and were captured by the anti-human Fc coupled HC30M chip. A 1:2 dilution series of his-tagged human TIGIT, starting at 400 nM, was injected onto the chip for binding. A dilution series was also carried out for cyno TIGIT and murine TIGIT. Data were analyzed using the Carterra™ Kinetics software.

Kd [nM]	Binder
2.69	B1
2.53	B2
0.0464	B3
0.0507	B4
0.0267	B5
0.0171	B6
1.81	B7
0.307	B8
0.128	B9
0.386	B10
0.292	B11
0.223	B13
0.416	B12

biological target: T3, his-tagged murine TIGIT (Acro …); experiment: as above
Description: as §1

Kd [nM]	Binder
1.65	B1
3.94	B2
96	B7
6.23	B8

biological target: T4, His-tagged cynomolgus monkey TIGIT …; experiment: as above
Description: as §1

Kd [nM]	Binder
339	B1
334	B2
6.96	B5
14.4	B7
2.09	B8
63	B10
31.6	B11
38.1	B13
24.5	B12

biological target: T3, his-tagged murine TIGIT (Acro …); experiment: SPR (Carterra LSA), scFv-Fc captured, His-TIGIT analyte; repeat
Description: as §1

Kd [nM]	Binder
42	B3
19	B6
0.595	B9

biological target: T4, His-tagged cynomolgus monkey TIGIT …; experiment: as above
Description: as §1

Kd [nM]	Binder
0.93	B3
0.368	B4
5.5	B5
0.32	B6
0.181	B9
33	B10
16	B11
4.6	B13
1.9	B12

Source: patent publication US20230265187A1 (published 2023)
